Results on one substance are retold here after publication PMC4585563.

The target of this assay is CTNNBL1^Q238A (human) (UniProt Q8WYA6). Put plainly: SEC; Superdex 200 10/300, 500 μl of 2 mg/ml protein, 0.5 ml/min, 40 mM Tris-HCl pH 8.0, 150 mM NaCl; molecular weight from calibration standards.

By stoichiometry N is commonly meant the number of molecules, sites or subunits per partner or assembly.

Take “CTNNBL1^Q238A (from UniProt Q8WYA6 77-563) (domain or fragment)”: the stoichiometry N amounted to 2.
